How the values were obtained:
rCoa-C binding to Fg = target: T1, rCoa-C binding to Fg (Homo sapiens, UniProt P02671+P02675+P02679); assay: Competition ELISA, peptide inhibition of rCoa-C (Coa 311-636) binding to Fg; conditions: increasing concentrations of peptides; 4 nM GST fusion protein
T1 construct: full-length human Fibrinogen (diluted in PBS, Enzyme research); purchased Enzyme research; host or cells: Coa probe made in E. coli BL21
T1 sequence (P02671 20-629 limits assumed): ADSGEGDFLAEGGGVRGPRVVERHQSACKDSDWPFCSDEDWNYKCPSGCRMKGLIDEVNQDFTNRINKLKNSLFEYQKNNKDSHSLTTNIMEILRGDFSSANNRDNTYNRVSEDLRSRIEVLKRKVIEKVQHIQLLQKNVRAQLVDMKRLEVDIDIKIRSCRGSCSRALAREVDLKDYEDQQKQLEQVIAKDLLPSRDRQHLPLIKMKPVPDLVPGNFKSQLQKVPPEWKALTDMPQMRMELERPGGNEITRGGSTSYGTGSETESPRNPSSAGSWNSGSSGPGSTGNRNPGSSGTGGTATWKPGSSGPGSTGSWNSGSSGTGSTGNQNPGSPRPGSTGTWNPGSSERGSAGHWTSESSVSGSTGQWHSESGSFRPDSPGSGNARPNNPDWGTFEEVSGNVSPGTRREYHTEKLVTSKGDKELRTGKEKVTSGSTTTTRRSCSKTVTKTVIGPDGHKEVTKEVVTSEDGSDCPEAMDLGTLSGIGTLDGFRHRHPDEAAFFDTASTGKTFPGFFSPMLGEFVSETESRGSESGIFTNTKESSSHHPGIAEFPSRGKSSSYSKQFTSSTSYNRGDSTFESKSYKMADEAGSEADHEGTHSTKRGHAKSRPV
T1 sequence (P02675 31-491): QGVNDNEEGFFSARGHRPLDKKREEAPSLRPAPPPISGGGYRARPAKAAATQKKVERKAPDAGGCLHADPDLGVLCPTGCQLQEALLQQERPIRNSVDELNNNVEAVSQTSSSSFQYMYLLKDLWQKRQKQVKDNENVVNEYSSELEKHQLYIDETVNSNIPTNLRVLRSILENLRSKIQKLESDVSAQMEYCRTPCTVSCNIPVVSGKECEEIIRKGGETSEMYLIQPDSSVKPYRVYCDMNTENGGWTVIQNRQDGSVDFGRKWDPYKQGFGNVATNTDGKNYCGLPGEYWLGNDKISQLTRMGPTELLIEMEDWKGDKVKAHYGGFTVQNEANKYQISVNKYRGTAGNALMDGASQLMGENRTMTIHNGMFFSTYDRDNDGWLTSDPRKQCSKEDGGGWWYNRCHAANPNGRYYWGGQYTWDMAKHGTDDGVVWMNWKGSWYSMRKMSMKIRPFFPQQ
T1 sequence (P02679 27-453): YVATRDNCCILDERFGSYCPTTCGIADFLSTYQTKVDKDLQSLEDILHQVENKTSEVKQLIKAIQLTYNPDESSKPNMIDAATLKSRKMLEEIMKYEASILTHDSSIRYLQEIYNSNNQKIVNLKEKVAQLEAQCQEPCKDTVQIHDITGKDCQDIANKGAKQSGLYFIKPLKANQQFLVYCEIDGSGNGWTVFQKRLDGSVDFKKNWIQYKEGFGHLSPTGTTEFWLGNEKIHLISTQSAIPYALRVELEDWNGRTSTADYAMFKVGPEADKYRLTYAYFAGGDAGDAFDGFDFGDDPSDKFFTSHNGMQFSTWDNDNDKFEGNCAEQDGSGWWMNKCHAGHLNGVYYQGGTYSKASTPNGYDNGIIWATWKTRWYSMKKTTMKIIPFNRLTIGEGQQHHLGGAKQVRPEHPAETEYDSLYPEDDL
Method: The residues in Coa-RI important for fibrinogen binding. FIG. 12A is a panel of coa-RI variant peptides were synthesized where each residue in the sequence is individually replaced with Ala (or Ser when the native a.a. is Ala). […] Wells were coated with 0.25 μg/well Fg. Labels -1, -2, -3, -4, -5, -6, -7, -8, -9, -10, -11, -12, -13, -14, -15, -16, -17, -18, -19, -20, -21, -22, -23, -24, -25, -26, -27 refer to Coa-RI-1, Coa-RI-2, Coa-RI-3, Coa-RI-4, Coa-RI-5, Coa-RI-6, Coa-RI-7, Coa-RI-8, Coa-RI-9, Coa-RI-10, Coa-RI-11, Coa-RI-12, Coa-RI-13, Coa-RI-14, Coa-RI-15, Coa-RI-16, Coa-RI-17, Coa-RI-18, Coa-RI-19, Coa-RI-20, Coa-RI-21, Coa-RI-22, Coa-RI-23, Coa-RI-24, Coa-RI-25, Coa-RI-26, Coa-RI-27, respectively. FIG. 12C is a comparison of amino acid sequence of Efb-O with Coa-RI. FIG. 12D is a Fg-binding register of tandem repeats in Coa. Bold letters denote the residues that are important for Fg binding. Binding of a fixed concentration of rCoa-C (2 nM) to immobilized Fg was determined in the presence of a fixed concentration of these peptides (50 uM) (FIG. 12B). […]
FIG. 13A is a schematic presentation of Coa peptides. […] The Fg binding activities of these peptides were then investigated in a competition ELISA where the binding of rCoa-C to Fg coated microtiter wells were determined in the presence of increasing concentrations of peptide (FIG. 13B). […]

[1] = tested on: C2C12-α1 and C2C12-α2 cells (human integrin α1 or α2 subunits); assay: C2C12 cell adhesion to coated DC proteins; type: cell-based, mouse; conditions: 10 μg coated protein; 1 hour
Method: Integrin interactions with DC2-Fg—A11 cell culture supplies were purchased from Life Technologies and used as received unless otherwise noted. […] Mouse myoblast C2C12, C2C12-α1, and C2C12-α2 cells were cultured in Dulbecco's modified Eagle's medium (DMEM) with 10 vol % fetal bovine serum (FBS) and 1 vol % penicillin-streptomycin, 1 mg ml^−1 geneticin, or 10 μg ml^−1 puromycin, respectively. To assess C2C12 cell adhesion, 48 well tissue culture polystyrene (TCPS) plates were coated with 10 μg of DC1 (negative control—no integrin binding sites), DC2, DC2-Fg, or collagen type I (positive control) overnight at 4° C. Proteins were coated in triplicate for each cell type. Wells were blocked with 4 wt % bovine serum albumin (BSA) in PBS for 1 hour at room temperature and rinsed with sterile PBS. Cells were adapted to serum-free media (DMEM with 1 mM CaCl2, 1 mM MgCl2, and appropriate antibiotic) for 12 hours prior to trypsinization and seeding at 5,000 cells cm^−1. […] Lysates from samples and from known standards were transferred to a 96 well plate, and cell numbers were measured with the CYTOTOX 96® NON-RADIOACTIVE CYTOTOXICITY ASSAY. […] Then, 50 μl of stop solution was added to each well, and the absorbance was read at 490 nm. Cell numbers were quantified using standards of known cell numbers for each cell line.

Fibrinogen = target: T2, Fibrinogen (Homo sapiens, UniProt P02671+P02675+P02679); assay: Solid phase binding assay, fibrinogen binding to coated DC2, DC2-Fg, Efb; conditions: read-out: apparent KD of fibrinogen binding
T2 sequence (P02671 20-629 limits assumed): T1 sequence (P02671 20-629 limits assumed)
T2 sequence (P02675 31-491): T1 sequence (P02675 31-491)
T2 sequence (P02679 27-453): T1 sequence (P02679 27-453)
Method: Solid phase binding assay-: Microtiter wells were coated with 1 μg of DC2, DC2-Fg, or Efb overnight at 4° C. to assess fibrinogen adhesion to DC proteins. Coated wells were blocked with 4 wt % BSA in PBS for 1 hour at room temperature. Fibrinogen was added to each protein-coated well in a serial dilution from 100 to 0 μg/well (0.3 to 0 μM). After 1 hour of incubation at room temperature, a sheep anti-fibrinogen antibody was applied to the wells (1:1000 dilution) for 1 hour at room temperature. An HRP-labelled secondary antibody to sheep was applied to the wells for 1 hour at room temperature, and […]™ OPD was utilized to detect bound fibrinogen via an absorbance reading at 450 nm on a THERMOMAX™ plate reader. Studies were performed in triplicate, and plates were washed three times between each step with 200 μl of PBS with 0.1 vol % TWEEN® 20.

Substance	inhibition of rCoa-C binding to fibrinogen by overlapping Coa R peptides (rCoa-C binding to Fg)	C2C12-α1 and C2C12-α2 adhesion [1]	Kd (Fibrinogen)
sCoa-RI2: 27-residue overlapping Coa repeat I peptide (AYNVTTHANGQVSYGARPTYKKPSETN)	some inhibitory activity		
DC2-Fg: DC2 with Fg binding motif Efb-O inserted after position 301 Gln (KYIKFKHDYNILEFNDGTFEYGARPQFNKPA; left off: things letters cannot carry; small tags and cut ends)		significantly increased C2C12-α1 and C2C12-α2 adhesion relative to DC2	~10 nM
Efb-O: Fg binding motif Efb 68-98 (SEQ ID NO:1); coated comparator in b135 is Efb			~1 nM

Source: patent US11407819B2, “Compositions and use of a fibrinogen binding motif present in EFB and COA for therapeutics and vaccines against Staphylococcus aureus” (priority 2013, dated 2022)
